Results as given in IntAct's records for PubMed 18320024.

B1: Tetratricopeptide repeat protein 4 (Homo sapiens), O95801 (parent)
chain: MEQPGQDPTSDDVMDSFLEKFQSQPYRGGFHEDQWEKEFEKVPLFMSRAPSEIDPRENPDLACLQSIIFDEERSPEEQAKTYKDEGNDYFKEKDYKKAVISYTEGLKKKCADPDLNAVLYTNRAAAQYYLGNFRSALNDVTAARKLKPCHLKAIIRGALCHLELKHFAEAVNWCDEGLQIDAKEKKLLEMRAKADKLKRIEQRDVRKANLKEKKERNQNEALLQAIKARNIRLSEAACEDEDSASEGLGELFLDGLSTENPHGARLSLDGQGRLSWPVLFLYPEYAQSDFISAFHEDSRFIDHLMVMFGETPSWDLEQKYCPDNLEVYFEDEDRAELYRVPAKSTLLQVLQHQRYFVKALTPAFLVCVGSSPFCKNFLRGRKVYQIR
partner: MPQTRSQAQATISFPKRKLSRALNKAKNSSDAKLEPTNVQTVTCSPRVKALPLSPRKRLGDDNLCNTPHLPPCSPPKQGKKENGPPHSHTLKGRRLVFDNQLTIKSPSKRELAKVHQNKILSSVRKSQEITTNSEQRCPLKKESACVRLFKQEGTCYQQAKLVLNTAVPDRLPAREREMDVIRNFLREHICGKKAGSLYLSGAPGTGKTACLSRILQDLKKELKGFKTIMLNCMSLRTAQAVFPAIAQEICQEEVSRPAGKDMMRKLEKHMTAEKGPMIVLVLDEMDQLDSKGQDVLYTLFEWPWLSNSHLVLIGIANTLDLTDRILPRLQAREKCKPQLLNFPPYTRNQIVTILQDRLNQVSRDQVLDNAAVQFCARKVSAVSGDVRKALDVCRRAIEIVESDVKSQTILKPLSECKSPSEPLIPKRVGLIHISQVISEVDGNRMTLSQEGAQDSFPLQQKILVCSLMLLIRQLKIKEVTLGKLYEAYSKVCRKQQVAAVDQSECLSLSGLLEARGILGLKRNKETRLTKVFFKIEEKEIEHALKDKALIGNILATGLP
B2: Tetratricopeptide repeat protein 4 (Homo sapiens), O95801 (parent)
chain: B1 chain

Variants of: B1
Settings: with cdc6_human CDC6, Q99741

effect of a mutation on the interaction	Variant
with no effect	MEQPGQDPTSDDVMDSFLEKFQSQPYRGGFHEDQWEKEFEKVPLFMSRAPSEIDPRENPDLACLQSMIFDEERSPEEQAKTYKDEGNDYFKEKDYKKAVISYTEGLKKKCADPDLNAVLYTNRAAAQYYLGNFRSALNDVTAARKLKPCHLKAIIRGALCHLELKHFAEAVNWCDEGLQIDAKEKKLLEMRAKADKLKRIEQRDVRKANLKEKKERNQNEALLQAIKARNIRLSEAACEDEDSASEGLGELFLDGLSTENPHGARLSLDGQGRLSWPVLFLYPEYAQSDFISAFHEDSRFIDHLMVMFGETPSWDLEQKYCPDNLEVYFEDEDRAELYRVPAKSTLLQVLQHQRYFVKALTPAFLVCVGSSPFCKNFLRGRKVYQIR [I67M]
disrupting interaction strength	MEQPGQDPTSDDVMDSFLEKFQSQPYRGGFHEDQWEKEFEKVPLFMSRAPSEIDPRENPDLACLQSIIFDEERSPEAQAKTYKDEGNDYFKEKDYKKAVISYTEGLKKKCADPDLNAVLYTNRAAAQYYLGNFRSALNDVTAARKLKPCHLKAIIRGALCHLELKHFAEAVNWCDEGLQIDAKEKKLLEMRAKADKLKRIEQRDVRKANLKEKKERNQNEALLQAIKARNIRLSEAACEDEDSASEGLGELFLDGLSTENPHGARLSLDGQGRLSWPVLFLYPEYAQSDFISAFHEDSRFIDHLMVMFGETPSWDLEQKYCPDNLEVYFEDEDRAELYRVPAKSTLLQVLQHQRYFVKALTPAFLVCVGSSPFCKNFLRGRKVYQIR [E77A]
with no effect	MEQPGQDPTSDDVMDSFLEKFQSQPYRGGFHEDQWEKEFEKDPLFMSRAPSEIDPRENPDLACLQSIIFDEERSPEEQAKTYKDEGNDYFKEKDYKKAVISYTEGLKKKCADPDLNAVLYTNRAAAQYYLGNFRSALNDVTAARKLKPCHLKAIIRGALCHLELKHFAEAVNWCDEGLQIDAKEKKLLEMRAKADKLKRIEQRDVRKANLKEKKERNQNEALLQAIKARNIRLSEAACEDEDSASEGLGELFLDGLSTENPHGARLSLDGQGRLSWPVLFLYPEYAQSDFISAFHEDSRFIDHLMVMFGETPSWDLEQKYCPDNLEVYFEDEDRAELYRVPAKSTLLQVLQHQRYFVKALTPAFLVCVGSSPFCKNFLRGRKVYQIR [V42D]
disrupting interaction strength	MEQPGQDPTSDDVMDSFLEKFQSQPYRGGFHEDQWEKEFEKVPLFMSRAPSEIDPRENPDLACLQSIIFDEERSPEEQAKTYKDEGNDYFKEKDYKKAVISYTEGLKKKCADPDLNAVLYTNRAAAQYYLGNFRSALNDVTAARKLKPCHLKAIIRGALCHLELKHFAEAVNWCDEGLQIDAKEKKLLEMRAKADKLKRIEQRDVRKANLKEKKERKQNEALLQAIKARNIRLSEAACEDEDSASEGLGELFLDGLSTENPHGARLSLDGQGRLSWPVLFLYPEYAQSDFISAFHEDSRFIDHLMVMFGETPSWDLEQKYCPDNLEVYFEDEDRAELYRVPAKSTLLQVLQHQRYFVKALTPAFLVCVGSSPFCKNFLRGRKVYQIR [N217K]

Variants of: B2
Settings: with hs90b_human HSP90AB1, P08238
hs90b_human HSP90AB1, P08238, sequence (P08238 whole entry): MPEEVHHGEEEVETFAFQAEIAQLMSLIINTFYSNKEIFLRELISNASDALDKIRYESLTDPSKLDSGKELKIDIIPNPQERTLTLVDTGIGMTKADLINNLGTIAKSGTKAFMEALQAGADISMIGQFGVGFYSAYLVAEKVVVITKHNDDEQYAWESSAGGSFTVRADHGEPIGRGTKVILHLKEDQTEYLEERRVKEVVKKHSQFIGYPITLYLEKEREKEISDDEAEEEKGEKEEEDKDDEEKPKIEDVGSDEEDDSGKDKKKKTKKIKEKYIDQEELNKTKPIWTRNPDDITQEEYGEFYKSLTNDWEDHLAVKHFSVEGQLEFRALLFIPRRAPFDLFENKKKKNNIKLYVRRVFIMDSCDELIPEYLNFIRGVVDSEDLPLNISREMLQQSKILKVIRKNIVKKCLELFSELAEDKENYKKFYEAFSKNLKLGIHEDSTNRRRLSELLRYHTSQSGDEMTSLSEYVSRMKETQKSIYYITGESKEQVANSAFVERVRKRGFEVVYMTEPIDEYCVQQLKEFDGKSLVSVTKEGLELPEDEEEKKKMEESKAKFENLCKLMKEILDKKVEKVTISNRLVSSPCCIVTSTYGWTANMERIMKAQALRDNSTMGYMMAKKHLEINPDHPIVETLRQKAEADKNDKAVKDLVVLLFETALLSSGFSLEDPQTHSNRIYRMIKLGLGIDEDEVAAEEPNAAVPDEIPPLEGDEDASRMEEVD

effect of a mutation on the interaction	Variant
decreasing interaction strength	MEQPGQDPTSDDVMDSFLEKFQSQPYRGGFHEDQWEKEFEKVPLFMSRAPSEIDPRENPDLACLQSIIFDEERSPEEQAKTYKDEGNDYFKEKDYKKAVISYTEGLKKKCADPDLNAVLYTNRAAAQYYLGNFRSALNDVTAARKLKPCHLKAIIRGALCHLELKHFAEAVNWCDEGLQIDAKEKKLLEMRAKADKLKRIEQRDVRKANLKEKKERKQNEALLQAIKARNIRLSEAACEDEDSASEGLGELFLDGLSTENPHGARLSLDGQGRLSWPVLFLYPEYAQSDFISAFHEDSRFIDHLMVMFGETPSWDLEQKYCPDNLEVYFEDEDRAELYRVPAKSTLLQVLQHQRYFVKALTPAFLVCVGSSPFCKNFLRGRKVYQIR [N217K]
with no effect	MEQPGQDPTSDDVMDSFLEKFQSQPYRGGFHEDQWEKEFEKVPLFMSRAPSEIDPRENPDLACLQSMIFDEERSPEEQAKTYKDEGNDYFKEKDYKKAVISYTEGLKKKCADPDLNAVLYTNRAAAQYYLGNFRSALNDVTAARKLKPCHLKAIIRGALCHLELKHFAEAVNWCDEGLQIDAKEKKLLEMRAKADKLKRIEQRDVRKANLKEKKERNQNEALLQAIKARNIRLSEAACEDEDSASEGLGELFLDGLSTENPHGARLSLDGQGRLSWPVLFLYPEYAQSDFISAFHEDSRFIDHLMVMFGETPSWDLEQKYCPDNLEVYFEDEDRAELYRVPAKSTLLQVLQHQRYFVKALTPAFLVCVGSSPFCKNFLRGRKVYQIR [I67M]
with no effect	MEQPGQDPTSDDVMDSFLEKFQSQPYRGGFHEDQWEKEFEKDPLFMSRAPSEIDPRENPDLACLQSIIFDEERSPEEQAKTYKDEGNDYFKEKDYKKAVISYTEGLKKKCADPDLNAVLYTNRAAAQYYLGNFRSALNDVTAARKLKPCHLKAIIRGALCHLELKHFAEAVNWCDEGLQIDAKEKKLLEMRAKADKLKRIEQRDVRKANLKEKKERNQNEALLQAIKARNIRLSEAACEDEDSASEGLGELFLDGLSTENPHGARLSLDGQGRLSWPVLFLYPEYAQSDFISAFHEDSRFIDHLMVMFGETPSWDLEQKYCPDNLEVYFEDEDRAELYRVPAKSTLLQVLQHQRYFVKALTPAFLVCVGSSPFCKNFLRGRKVYQIR [V42D]
decreasing interaction strength	MEQPGQDPTSDDVMDSFLEKFQSQPYRGGFHEDQWEKEFEKVPLFMSRAPSEIDPRENPDLACLQSIIFDEERSPEAQAKTYKDEGNDYFKEKDYKKAVISYTEGLKKKCADPDLNAVLYTNRAAAQYYLGNFRSALNDVTAARKLKPCHLKAIIRGALCHLELKHFAEAVNWCDEGLQIDAKEKKLLEMRAKADKLKRIEQRDVRKANLKEKKERNQNEALLQAIKARNIRLSEAACEDEDSASEGLGELFLDGLSTENPHGARLSLDGQGRLSWPVLFLYPEYAQSDFISAFHEDSRFIDHLMVMFGETPSWDLEQKYCPDNLEVYFEDEDRAELYRVPAKSTLLQVLQHQRYFVKALTPAFLVCVGSSPFCKNFLRGRKVYQIR [E77A]

Variants of: B2
Settings: with hsp7c_human HSPA8, P11142
hsp7c_human HSPA8, P11142, sequence (P11142 whole entry, looked up): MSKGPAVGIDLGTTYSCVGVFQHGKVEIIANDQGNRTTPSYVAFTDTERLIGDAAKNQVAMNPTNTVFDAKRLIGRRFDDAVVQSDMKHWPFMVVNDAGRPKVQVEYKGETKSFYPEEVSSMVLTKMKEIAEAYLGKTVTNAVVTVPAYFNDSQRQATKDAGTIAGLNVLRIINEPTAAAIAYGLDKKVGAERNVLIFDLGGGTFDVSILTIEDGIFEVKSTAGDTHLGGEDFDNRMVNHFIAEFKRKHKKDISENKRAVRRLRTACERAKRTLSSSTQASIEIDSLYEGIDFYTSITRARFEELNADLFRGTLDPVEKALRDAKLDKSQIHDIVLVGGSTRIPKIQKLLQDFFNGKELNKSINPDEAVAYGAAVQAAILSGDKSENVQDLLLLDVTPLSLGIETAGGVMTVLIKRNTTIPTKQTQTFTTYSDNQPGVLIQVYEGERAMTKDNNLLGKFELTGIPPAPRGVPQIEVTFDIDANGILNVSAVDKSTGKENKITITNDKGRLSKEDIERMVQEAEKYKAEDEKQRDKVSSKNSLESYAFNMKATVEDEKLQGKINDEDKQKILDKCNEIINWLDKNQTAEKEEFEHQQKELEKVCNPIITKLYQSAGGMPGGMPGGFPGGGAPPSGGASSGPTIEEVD

effect of a mutation on the interaction	Variant
with no effect	MEQPGQDPTSDDVMDSFLEKFQSQPYRGGFHEDQWEKEFEKVPLFMSRAPSEIDPRENPDLACLQSIIFDEERSPEEQAKTYKDEGNDYFKEKDYKKAVISYTEGLKKKCADPDLNAVLYTNRAAAQYYLGNFRSALNDVTAARKLKPCHLKAIIRGALCHLELKHFAEAVNWCDEGLQIDAKEKKLLEMRAKADKLKRIEQRDVRKANLKEKKERKQNEALLQAIKARNIRLSEAACEDEDSASEGLGELFLDGLSTENPHGARLSLDGQGRLSWPVLFLYPEYAQSDFISAFHEDSRFIDHLMVMFGETPSWDLEQKYCPDNLEVYFEDEDRAELYRVPAKSTLLQVLQHQRYFVKALTPAFLVCVGSSPFCKNFLRGRKVYQIR [N217K]
decreasing interaction strength	MEQPGQDPTSDDVMDSFLEKFQSQPYRGGFHEDQWEKEFEKVPLFMSRAPSEIDPRENPDLACLQSMIFDEERSPEEQAKTYKDEGNDYFKEKDYKKAVISYTEGLKKKCADPDLNAVLYTNRAAAQYYLGNFRSALNDVTAARKLKPCHLKAIIRGALCHLELKHFAEAVNWCDEGLQIDAKEKKLLEMRAKADKLKRIEQRDVRKANLKEKKERNQNEALLQAIKARNIRLSEAACEDEDSASEGLGELFLDGLSTENPHGARLSLDGQGRLSWPVLFLYPEYAQSDFISAFHEDSRFIDHLMVMFGETPSWDLEQKYCPDNLEVYFEDEDRAELYRVPAKSTLLQVLQHQRYFVKALTPAFLVCVGSSPFCKNFLRGRKVYQIR [I67M]
decreasing interaction strength	MEQPGQDPTSDDVMDSFLEKFQSQPYRGGFHEDQWEKEFEKDPLFMSRAPSEIDPRENPDLACLQSIIFDEERSPEEQAKTYKDEGNDYFKEKDYKKAVISYTEGLKKKCADPDLNAVLYTNRAAAQYYLGNFRSALNDVTAARKLKPCHLKAIIRGALCHLELKHFAEAVNWCDEGLQIDAKEKKLLEMRAKADKLKRIEQRDVRKANLKEKKERNQNEALLQAIKARNIRLSEAACEDEDSASEGLGELFLDGLSTENPHGARLSLDGQGRLSWPVLFLYPEYAQSDFISAFHEDSRFIDHLMVMFGETPSWDLEQKYCPDNLEVYFEDEDRAELYRVPAKSTLLQVLQHQRYFVKALTPAFLVCVGSSPFCKNFLRGRKVYQIR [V42D]
with no effect	MEQPGQDPTSDDVMDSFLEKFQSQPYRGGFHEDQWEKEFEKVPLFMSRAPSEIDPRENPDLACLQSIIFDEERSPEAQAKTYKDEGNDYFKEKDYKKAVISYTEGLKKKCADPDLNAVLYTNRAAAQYYLGNFRSALNDVTAARKLKPCHLKAIIRGALCHLELKHFAEAVNWCDEGLQIDAKEKKLLEMRAKADKLKRIEQRDVRKANLKEKKERNQNEALLQAIKARNIRLSEAACEDEDSASEGLGELFLDGLSTENPHGARLSLDGQGRLSWPVLFLYPEYAQSDFISAFHEDSRFIDHLMVMFGETPSWDLEQKYCPDNLEVYFEDEDRAELYRVPAKSTLLQVLQHQRYFVKALTPAFLVCVGSSPFCKNFLRGRKVYQIR [E77A]

Variants of: B2
Settings: with hs90b_human HSP90AB1, P08238
Remark: another data set of the same source

effect of a mutation on the interaction	Variant
disrupting interaction strength	MEQPGQDPTSDDVMDSFLEKFQSQPYRGGFHEDQWEKEFEKVPLFMSRAPSEIDPRENPDLACLQSIIFDEERSPEEQAKTYKDEGNDYFKEKDYKKAVISYTEGLKKKCADPDLNAVLYTNRAAAQYYLGNFRSALNDVTAARKLKPCHLKAIIEGALCHLELKHFAEAVNWCDEGLQIDAKEKKLLEMRAKADKLKRIEQRDVRKANLKEKKERNQNEALLQAIKARNIRLSEAACEDEDSASEGLGELFLDGLSTENPHGARLSLDGQGRLSWPVLFLYPEYAQSDFISAFHEDSRFIDHLMVMFGETPSWDLEQKYCPDNLEVYFEDEDRAELYRVPAKSTLLQVLQHQRYFVKALTPAFLVCVGSSPFCKNFLRGRKVYQIR [R156E]
disrupting interaction strength	MEQPGQDPTSDDVMDSFLEKFQSQPYRGGFHEDQWEKEFEKVPLFMSRAPSEIDPRENPDLACLQSIIFDEERSPEEQAKTYKDEGNDYFKEKDYKKAVISYTEGLKKKCADPDLNAVLYTNRAAAQYYLGNFRSALNDVTAARKLKPCHLEAIIEGALCHLELKHFAEAVNWCDEGLQIDAKEKKLLEMRAKADKLKRIEQRDVRKANLKEKKERNQNEALLQAIKARNIRLSEAACEDEDSASEGLGELFLDGLSTENPHGARLSLDGQGRLSWPVLFLYPEYAQSDFISAFHEDSRFIDHLMVMFGETPSWDLEQKYCPDNLEVYFEDEDRAELYRVPAKSTLLQVLQHQRYFVKALTPAFLVCVGSSPFCKNFLRGRKVYQIR [K152E;R156E]
disrupting interaction strength	MEQPGQDPTSDDVMDSFLEKFQSQPYRGGFHEDQWEKEFEKVPLFMSRAPSEIDPRENPDLACLQSIIFDEERSPEEQAKTYKDEGNDYFKEKDYKKAVISYTEGLKKKCADPDLNAVLYTNRAAAQYYLGNFRSALNDVTAARKLKPCHLEAIIRGALCHLELKHFAEAVNWCDEGLQIDAKEKKLLEMRAKADKLKRIEQRDVRKANLKEKKERNQNEALLQAIKARNIRLSEAACEDEDSASEGLGELFLDGLSTENPHGARLSLDGQGRLSWPVLFLYPEYAQSDFISAFHEDSRFIDHLMVMFGETPSWDLEQKYCPDNLEVYFEDEDRAELYRVPAKSTLLQVLQHQRYFVKALTPAFLVCVGSSPFCKNFLRGRKVYQIR [K152E]
